One substance from patent publication US7166426 can be followed below.

In assay [1] the target is NS3/4a conformational epitope with Thr to Pro and Ser to Ile substitutions (hepatitis C virus, HCV-1 (HCV1a)) (UniProt P26664). The experiment in a line: ELISA, antigen coated on microtiter plate, average of the negative controls. (An ELISA detects its analyte on a solid surface through an enzyme-linked reagent.)
For assay [2], the target named is c200 antigen. The assay is described as above.
The target of assay [3] is denatured NS3/4a (hepatitis C virus, HCV-1 (HCV1a)) (UniProt P26664). The assay is described as above.
Assay [4] has as its target NS3/4a conformational epitope with Thr to Pro and Ser to Ile substitutions (hepatitis C virus, HCV-1 (HCV1a)) (UniProt P26664). Put plainly: ELISA, antigen coated on microtiter plate, negative control.
For assay [5], the target named is c200 antigen. The assay is described as above.
The target in assay [6] is denatured NS3/4a (hepatitis C virus, HCV-1 (HCV1a)) (UniProt P26664). The assay is described as above.

Several values for one entry are separate records, joined by “and”; a condition that tells them apart may be missing. Equal entries are not always repeated.

Turning to HCV 3.0 Controls, negative control, the OD (average of Neg. Cont.) was found to be 0.024 OD in assay [1], 0.007 OD with c200 antigen [2] and 0.022 OD in assay [3]. In addition, the OD in assay [4] is 0.023 OD and 0.027 OD and 0.021 OD; in the assay with c200 antigen [5], 0.008 OD and 0.007 OD and 0.005 OD; in assay [6], 0.024 OD and 0.017 OD.
